Holding throughout (type): cell-based
The subject of data set [1] is MDA MB 231 cells. Kind of data set: Cell migration, modified Boyden chamber method. The note with it: 18 hr migration. In a few lines:
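MDA MB 231 cells, transfected with FOG2 constructs (24 hr) or treated 2 days with 4 μM peptides/DMSO, were seeded serum-free (1×10^5) in Boyden chambers, serum-free below, 18 hr at 37° C. Giemsa-stained migrated cells counted in six random fields; mean cells per field.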

Data set [2] relates to MDA MB 231 cells. Kind of data set: Apoptosis by FACS analysis (propidium iodide) in MDA MB 231 cells. Conditions: for number of apoptotic cells: transfected with 1 μg FOG2 fragment, 2 days, FIG. 7A. Here is the method: PI3K inactivation has been reported to cause cancer cell apoptosis, and FOG2 is known to inhibit the PI3K activity. To test whether PI3K inactivation by overexpressing FOG2 induces apoptosis, MDA MB 231 cells overexpressed FOG2 were analyzed with FACS.
MDA MB 231 cells were incubated with Full-FOG2[1-1151], FOG2[1-412], FOG2[413-789] or FOG2[802-1151]. The cells (5×10^4) were seeded in a 12-well plate and transfected with 1 μg of Full-FOG2[1-1151], FOG2[1-412], FOG2[413-789] or FOG2[802-1151] using Lipofectamine 2000. The cells were incubated at 37° C. for 2 days and subject to FACS analysis.
The cells were incubated with FOG2 fragments and fixed with 70% ethanol for 16 hr. The fixed cells were stained using RNase (5 mg/ml) and propidium iodide ([…]). The amount of DNA in stained cells was analyzed with Cell Quest program of FACS caliber (Becton Dickinson).
A general note: Flow cytometry measures light scatter and fluorescence of single cells or particles in a stream.

A further data set relates to Hep3B cells. Kind of data set: Apoptosis by FACS analysis in Hep3B cells. The note with it: synthesized peptides, 48 hr of treatment, FIG. 4B. The method, then: PI3K inactivation is known to cause cancer cell apoptosis, and FOG2 is known to inhibit PI3K activity. To test whether PI3K inactivation by overexpressing FOG2 induces apoptosis, Hep3B cells treated with the peptide synthesized in <Experiment 3> were analyzed with FACS.

Another data set concerns MCF 7. The data set can be described thus: Apoptosis by FACS analysis in MCF7 cells. The note with it: synthesized peptides, FIG. 7D. From the text:
FIG. 7D is a graph showing the apoptotic effect by synthesized zinc finger domain peptides of FOG2 in MCF7 cells according to FACS analysis;

The target of data set [3] is T1, PI3K (Homo sapiens, UniProt P27986). Kind of data set: PI3K activity in MDA MB 231 cells incubated with zinc finger domain peptides. More on the design: The cell lysates were immunoprecipitated with p85α (sc-1637, Santa Cruz) and Protein G-Sepharose beads; endogenous in cells. Conditions: synthesized peptides, FIG. 5. The method, then:
(§1) For measurement of PI3K activity, 10 μl of sonicated PIP2 (1 μg/μl, Calbiochem), 10 μl of 100 mM MgCl2 and 1 μl of [-^32P]ATP (500 μCi/ml) were added to the kinase buffer (10 mM Tris-HCl (pH 7.4), 150 mM NaCl, 1 mM Na3VO4, 10 mM ZnCl2) and incubated at 37° C. for 30 min. After incubation, 20 μl of 6 N HCl was added to stop the reaction and PIP2 was extracted by treatment with 200 μl of methanol:chloroform (1:1) solution. The amount of radioactively labeled PIP2 in the extract was measured using a scintillator counter.
For peptide treatment, cells were trypsinized to detach them from a culture dish and their aliquot (2×10^5 cells) was incubated with 4 μM peptides in 100 mm dishes. The control was incubated with Mock (DMSO).

For data set [4], the target named is T1, PI3K. Kind of data set: IGF-1-induced PI3K activation in Hep3B cells incubated with peptides. More on the design: The cell lysates were immunoprecipitated with p85α (sc-1637, Santa Cruz) and Protein G-Sepharose beads; endogenous in cells; host or cells: Hep3B. The note with it: 4 μM peptides, 48 hr, FIG. 2C. Here is the method:
as §1
In addition, Hep3B liver cancer cells were incubated with 4 μM peptides for 48 hr and the PI3K activity was analyzed.

The subject of the next data set is Akt. The data set can be described thus: Akt phosphorylation by Western blot in transfected Hep3B cells after IGF-1 stimulation. Conditions: FIG. 1D. The method, then: Hep3B cells were transfected with FOG2 mutants having modified zinc finger domain to measure the effect on the Akt signaling by FOG2-ZF-5m. The Akt activity was measured by analyzed Akt phosphorylation.
Hep3B cells were transfected with pCK-flag (control), FOG2-wt (wild type) and FOG2 mutants having modified zinc finger domain (FOG2-ZF-5-m and FOG2-ZF-6-m) and stimulated with IGF-1. The expression of Akt (Cell signaling Technology, USA), pAkt (Cell signaling Technology, USA) and GAPDH(Santa cruz, USA) were measured by Western blot analysis.
A general note: In western blotting, separated proteins are transferred to a membrane and probed.

In data set [5] the test system is MDA MB 231 cells. Kind of data set: Cell proliferation MTT assay. Conditions: transfected with 100 ng DNA, 3 days post-transfection, FIG. 6A. In a few lines:
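Cells (2×10^3/well) were treated with 4 μM peptide for 3 days, or transfected with 100 ng FOG2 wild-type or zinc-finger mutant plasmid and assayed 3 days later. MTT (2 mg/ml) was added for 1 h at 37 °C, dissolved in DMSO, and absorbance was read at 590 nm.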
A general note: Tetrazolium dyes change colour on reduction, which living cells bring about.

A further data set relates to HCT116 cells. The data set can be described thus: Apoptosis by FACS analysis in HCT116 cells. The note with it: 2 days after transfection, FIG. 4A. The method, then:
PI3K inactivation is known to cause cancer cell apoptosis, and FOG2 is known to inhibit PI3K activity. To test whether PI3K inactivation by overexpressing FOG2 induces apoptosis, HCT116 cells transfected with pCK-flag (control), FOG2-wt (wild type) and FOG2 mutants (FOG2-ZF-5-m and FOG2-ZF-6-m) were analyzed with FACS.

The target of data set [6] is T1, PI3K. The data set can be described thus: PI3K activity in Hep3B cells transfected with FOG2 constructs (p85α immunoprecipitation, 32P-ATP/PIP2 kinase assay). The note with it: 100 ng/ml IGF-1 30 min, FIG. 1C. More on the design: The cell lysates were immunoprecipitated with p85α (sc-1637, Santa Cruz) and Protein G-Sepharose beads; endogenous in cells; host or cells: Hep3B. The method, then: To investigate the inhibitory effect to PI3K activity by FOG2 zinc finger domain, PI3K activity was analyzed using FOG2 mutants having modified zinc finger domain. Specially, it is known that IGF signaling pathway plays an important role in cancer and the increased IGF-1 level enhances the risk of various cancers in many researches.
Accordingly, the PI3K activity was increased by incubating Hep3B cells with IGF-1 and then measured when the cells were incubated with peptides having mutated FOG2 zinc finger domain.
After Hep3B cells incubation, 100 ng/ml IGF-1 (Insulin like growth factor-1) was added to the cells and incubated for 30 min.
Hep3B cells were transfected with pCK-flag (control), FOG2-wt (wild type) and FOG2 mutants having modified zinc finger domain (FOG2-ZF-5-m and FOG2-ZF-6-m). Two days later, the lysates were obtained using a lysis buffer (20 mM Hepes (pH7.4), 100 mM NaCl, 20 mM KAc, 10 mM MgCl2, 10 mM ZnCl2, 1 mM Na3VO4, 1% NPO4). The cell lysates were immunoprecipitated with p85α (sc-1637, Santa Cruz) and Protein G-Sepharose beads using the same method above. After binding to beads, the lysates were washed 2 times with the lysis buffer and one time with the wash buffer (0.1 M Tris-HCl (pH 7.4), 5 mM LiCl, and 0.1 mM Na3VO4).
as §1

T1 sequence (P27986 whole entry, the tested form may be a part): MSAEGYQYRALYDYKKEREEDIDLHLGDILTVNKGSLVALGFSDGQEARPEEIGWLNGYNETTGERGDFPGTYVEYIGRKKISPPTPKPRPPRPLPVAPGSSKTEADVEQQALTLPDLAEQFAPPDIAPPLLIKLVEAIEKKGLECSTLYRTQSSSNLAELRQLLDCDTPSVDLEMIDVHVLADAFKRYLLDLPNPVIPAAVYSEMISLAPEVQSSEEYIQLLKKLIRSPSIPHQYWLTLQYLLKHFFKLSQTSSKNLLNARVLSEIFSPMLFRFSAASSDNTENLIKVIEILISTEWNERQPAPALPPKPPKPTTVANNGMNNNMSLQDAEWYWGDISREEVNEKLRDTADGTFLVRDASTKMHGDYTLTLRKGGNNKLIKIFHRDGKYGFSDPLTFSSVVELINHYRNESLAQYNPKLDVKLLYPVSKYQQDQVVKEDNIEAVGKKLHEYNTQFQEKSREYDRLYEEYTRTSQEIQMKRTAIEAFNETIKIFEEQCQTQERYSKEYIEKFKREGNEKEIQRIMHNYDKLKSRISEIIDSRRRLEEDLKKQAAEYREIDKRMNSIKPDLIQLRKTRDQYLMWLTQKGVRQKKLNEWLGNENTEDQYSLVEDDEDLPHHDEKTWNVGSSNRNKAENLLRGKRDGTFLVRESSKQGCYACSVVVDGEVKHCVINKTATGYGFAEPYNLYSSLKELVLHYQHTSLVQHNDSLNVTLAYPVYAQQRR

On to “ZF-5-wt-20: The peptide comprising a portion of the fifth zinc finger domain of FOG2 (20 amino acids) (CFECNITFNNLDNYLVHKKH)”, for which the “reduction of cell migration” value with MDA MB 231 cells [1] (4 μM peptide, 2 days of treatment, FIG. 3B) is on record as “reduce the cell migration”. For the same molecule, the apoptosis entry is given as “promoted apoptosis” in the data set on MDA MB 231 cells [2] (synthesized peptides, FIG. 7C); “induced apoptosis” with Hep3B cells; “promoted apoptosis” in the data set with MCF 7. Moreover, in the data set with PI3K [3], the PI3K activity result is recorded as “decrease PI3K activity”. Besides, in the data set with PI3K [4], the “IGF-1-induced PI3K activation” value was “inhibited”.

B1: FOG2-wt: The wild type of FOG2; full-length FOG2 cDNA cloned into the pCK-flag vector and overexpressed (protein)
chain: MSRRKQSKPRQIKRPLEDAIEDEEEECPSEETDIISKGDFPLEESFSTEFGPENLSCEEVEYFCNKGDDEGIQETAESDGDTQSEKPGQPGVETDDWDGPGELEVFQKDGERKIQSRQQLPVGTTWGPFPGKMDLNNNSLKTKAQVPMVLTAGPKWLLDVTWQGVEDNKNNCIVYSKGGQLWCTTTKAISEGEELIAFVVDFDSRLQAASQMTLTEGMYPARLLDSIQLLPQQAAMASILPTAIVNKDIFPCKSCGIWYRSERNLQAHLMYYCSGRQREAAPVSEENEDSAHQISSLCPFPQCTKSFSNARALEMHLNSHSGVKMEEFLPPGASLKCTVCSYTADSVINFHQHLFSHLTQAAFRCNHCHFGFQTQRELLQHQELHVPSGKLPRESDMEHSPSATEDSLQPATDLLTRSELPQSQKAMQTKDASSDTELDKCEKKTQLFLTNQRPEIQPTTNKQSFSYTKIKSEPSSPRLASSPVQPNIGPSFPVGPFLSQFSFPQDITMVPQASEILAKMSELVHRRLRHGSSSYPPVIYSPLMPKGATCFECNITFNNLDNYLVHKKHYCSSRWQQMAKSPEFPSVSEKMPEALSPNTGQTSINLLNPAAHSADPENPLLQTSCINSSTVLDLIGPNGKGHDKDFSTQTKKLSTSSNNDDKINGKPVDVKNPSVPLVDGESDPNKTTCEACNITFSRHETYMVHKQYYCATRHDPPLKRSASNKVPAMQRTMRTRKRRKMYEMCLPEQEQRPPLVQQRFLDVANLNNPCTSTQEPTEGLGECYHPRCDIFPGIVSKHLETSLTINKCVPVSKCDTTHSSVSCLEMDVPIDLSKKCLSQSERTTTSPKRLLDYHECTVCKISFNKVENYLAHKQNFCPVTAHQRNDLGQLDGKVFPNPESERNSPDVSYERSIIKCEKNGNLKQPSPNGNLFSSHLATLQGLKVFSEAAQLIATKEENRHLFLPQCLYPGAIKKAKGADQLSPYYGIKPSDYISGSLVIHNTDIEQSRNAENESPKGQASSNGCAALKKDSLPLLPKNRGMVIVNGGLKQDERPAANPQQENISQNPQHEDDHKSPSWISENPLAANENVSPGIPSAEEQLSSIAKGVNGSSQAPTSGKYCRLCDIQFNNLSNFITHKKFYCSSHAAEHVK
modifications: left off: small tags and cut ends
notes: The wild type of FOG2; full-length FOG2 cDNA cloned into the pCK-flag vector and overexpressed
Turning to B1, the Akt phosphorylation entry is given as “decreased” with Akt and “inhibited” with Akt (listed as FOG2-ZF-wt). The “reduction of cell proliferation” value in the data set with MDA MB 231 cells [5] is given as “about 40%”. Also, the “reduction of cell migration” value in the data set with MDA MB 231 cells [1] (transfected 24 hr, FIG. 3A) was “approximately 80%”. In addition, the results for the “number of apoptotic cells” value in the data set with MDA MB 231 cells [2] (listed as FOG2[1-1151]) and with MDA MB 231 cells [2] (listed as Full-FOG2[1-1151]) were “reduces the apoptosis” and “increased”, respectively. Further, the apoptosis entry in the data set with HCT116 cells is reported as “increased apoptosis”. The “PI3K activation by IGF-1 stimulation” value in the data set with PI3K [6] was “inhibited”.

The values are drawn from US20130116185A1, “PHOSPHATIDYLINOSITOL 3-KINASES ACTIVITY REGULATOR INCLUDING THE FIFTH ZINC FINGER DOMAIN OF FOG2” (SNU R&DB FOUNDATION, priority 2010, published 2013).
